T1: Human IKK-α containing an N-terminal Flag epitope tag (human, UniProt O15111 1-745)
T1 construct: Transiently expressed in 293 cells for coimmunoprecipitation; also called IκB Kinase
T1 sequence: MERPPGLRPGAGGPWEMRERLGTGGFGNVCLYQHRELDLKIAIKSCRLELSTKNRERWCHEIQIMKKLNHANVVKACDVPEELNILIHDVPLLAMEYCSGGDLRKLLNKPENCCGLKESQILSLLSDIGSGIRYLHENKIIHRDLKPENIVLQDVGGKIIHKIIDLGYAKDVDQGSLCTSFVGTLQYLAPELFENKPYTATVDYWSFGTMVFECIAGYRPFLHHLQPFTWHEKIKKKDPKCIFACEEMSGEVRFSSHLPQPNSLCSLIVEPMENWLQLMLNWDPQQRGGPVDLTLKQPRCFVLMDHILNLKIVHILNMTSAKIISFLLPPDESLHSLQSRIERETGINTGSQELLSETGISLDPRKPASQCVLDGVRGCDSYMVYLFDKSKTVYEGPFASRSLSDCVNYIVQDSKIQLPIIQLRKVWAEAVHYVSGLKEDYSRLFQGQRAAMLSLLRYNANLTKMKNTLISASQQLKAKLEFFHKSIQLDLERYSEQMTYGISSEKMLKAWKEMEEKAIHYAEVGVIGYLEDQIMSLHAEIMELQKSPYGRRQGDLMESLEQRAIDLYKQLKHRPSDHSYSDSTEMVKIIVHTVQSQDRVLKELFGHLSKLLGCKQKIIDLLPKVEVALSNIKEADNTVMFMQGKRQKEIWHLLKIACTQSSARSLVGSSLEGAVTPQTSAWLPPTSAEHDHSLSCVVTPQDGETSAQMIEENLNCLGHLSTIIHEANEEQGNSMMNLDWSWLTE


Target: T1, Human IKK-α containing an N-terminal …
Test: coimmunoprecipitation from 293 cell lysates, anti-Flag IP, anti-HA immunoblot
Excerpt: Human IKK-α containing an N-terminal Flag epitope tag was transiently coexpressed in 293 human embryonic kidney cells with Myc epitope-tagged NIK or HA epitope-tagged TRAF proteins. Cell lysates were immunoprecipitated using a monoclonal antibody against the Flag epitope, and coprecipitating NIK or TRAF proteins were detected by immunoblot analysis with an anti-Myc or anti-HA monoclonal antibodies.

Row | binding result | Binder
1 | no binding | HA epitope-tagged TRAF2 (other, UniProt Q12933 1-501, looked up, not shown: small tags and cut ends, Transiently coexpressed in 293 cells) MAAASVTPPGSLELLQPGFSKTLLGTKLEAKYLCSACRNVLRRPFQAQCGHRYCSFCLASILSSGPQNCAACVHEGIYEEGISILESSSAFPDNAARREVESLPAVCPSDGCTWKGTLKEYESCHEGRCPLMLTECPACKGLVRLGEKERHLEHECPERSLSCRHCRAPCCGADVKAHHEVCPKFPLTCDGCGKKKIPREKFQDHVKTCGKCRVPCRFHAIGCLETVEGEKQQEHEVQWLREHLAMLLSSVLEAKPLLGDQSHAGSELLQRCESLEKKTATFENIVCVLNREVERVAMTAEACSRQHRLDQDKIEALSSKVQQLERSIGLKDLAMADLEQKVLEMEASTYDGVFIWKISDFARKRQEAVAGRIPAIFSPAFYTSRYGYKMCLRIYLNGDGTGRGTHLSLFFVVMKGPNDALLRWPFNQKVTLMLLDQNNREHVIDAFRPDVTSSSFQRPVNDMNIASGCPLFCPVSKMEAKNSYVRDDAIFIKAIVDLTGL
2 | no binding | HA epitope-tagged TRAF3 (other, UniProt Q13114 1-568, looked up, not shown: small tags and cut ends, Transiently coexpressed in 293 cells) MESSKKMDSPGALQTNPPLKLHTDRSAGTPVFVPEQGGYKEKFVKTVEDKYKCEKCHLVLCSPKQTECGHRFCESCMAALLSSSSPKCTACQESIVKDKVFKDNCCKREILALQIYCRNESRGCAEQLMLGHLLVHLKNDCHFEELPCVRPDCKEKVLRKDLRDHVEKACKYREATCSHCKSQVPMIALQKHEDTDCPCVVVSCPHKCSVQTLLRSELSAHLSECVNAPSTCSFKRYGCVFQGTNQQIKAHEASSAVQHVNLLKEWSNSLEKKVSLLQNESVEKNKSIQSLHNQICSFEIEIERQKEMLRNNESKILHLQRVIDSQAEKLKELDKEIRPFRQNWEEADSMKSSVESLQNRVTELESVDKSAGQVARNTGLLESQLSRHDQMLSVHDIRLADMDLRFQVLETASYNGVLIWKIRDYKRRKQEAVMGKTLSLYSQPFYTGYFGYKMCARVYLNGDGMGKGTHLSLFFVIMRGEYDALLPWPFKQKVTLMLMDQGSSRRHLGDAFKPDPNSSSFKKPTGEMNIASGCPVFVAQTVLENGTYIKDDTIFIKVIVDTSDLPDP
